The nanobody polyreactivity screen of Harvey et al. (2022)

Assay: yeast display, Sf9 membrane polyspecificity reagent, FACS + sequencing; frameworks hold sequencing errors
Summary of the method: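 Nanobodies came from a synthetic yeast display library in Saccharomyces cerevisiae BJ5465, induced with galactose for 36–48 hours and stained for 1 hour at 4 °C with 10% biotinylated, detergent-solubilized Sf9 membrane reagent. Cells were enriched on streptavidin microbeads and then FACS-sorted, with low and high (top ~1%) gates set on anti-HA fluorescence for expression and streptavidin fluorescence for reagent binding. Each polyreactivity label reflects the gate a clone came from. Genes were amplified by colony PCR, sequenced by MiSeq 2 × 250 and filtered by CDR length.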

Sequence | polyreactivity (PSR sort gate)
QVQLVESGGGLVQAGGSLRLSCAASGRIFYPYVMGWYRQAPGKERELVAAISDSTGSTYYADSVKGRFTISRDNAKNTVYLQMNSLKPEDTAVYYCAAGWFYATYWRFYYWGQGTLVTVSS | low polyreactivity
QVQLVESGGGLVQAGGSLRLSCAASGFTFVYYAMGWYRQAPGKERELVAGISSSAGSTYYADSVKGRFTISRDNAKNTVYLQMNSLKPEDTAVYYCNAEYYWWPFDYWGQGTQVTVSS | high polyreactivity
QVQLVESGGGLVQAGGSLRLSCAASGSIFRGNAMGWYRQAPGKEREMVAAISVSGSRTYYADSVKGRFTISRDNAKNTVYLQMNSLIPEDTAVYYCNAVLRVKGSGDFDYWGEGTQVTVSS | high polyreactivity
QVQHVESGGGLVQARGSLRLSCAASGFTFLAYAMGWYRQAPGKERELVAAINSSDCTTHYADSVKGRFTISRDYAKNTVYLQMNSLKPVDTAVYYCNTDWAYLSDYWGQGTQVTVSS | low polyreactivity
QVQLVESGGGLVQAGGSLRLSCAASGFTFFYYAIRWYRQAPGKEREVVAAISSNGGRTYYADSVKGRFTISRDNAKNTVYLQMYSLKPEDTAVYYCTALRYVVYFDDDYWGQGTQVTVSS | high polyreactivity
QVQLGESGGGLVQAGGSLRLSCAASGSTIRRYTMGWYRQAPGKERELDAAITGSGGSTYYADSVKGRFTISRDNAKNTVYLQMNSLKPEDPAVYYCAAPPWRRIVGGIYDYWGQGTQVTVSS | high polyreactivity
QVQLVESGGGLVQAGGSLRLRCAASGSTLYGNAMGWYRQAPGKERDLVAVISRGGTTSYADSVKGRFTISRDNAKNTVYLQMKSLKPEDTAVYYCAVDVASLSTWPPAGRLVDYWGQGTQVTVSS | low polyreactivity
QVQLVESGGGLVQAGGSLRLSCAASGRIFIGNAMGWSRQAPGKERELVAAISSSGGSTYYADSVKGRFTISRDNAKNTVYLQMNSLKPEDTAVYYCAAETKNAPRFYPYSNEGYYYWGHGTQVTVSS | low polyreactivity
QVQLVESGGGLVQAGGSLRLSCAASGSIFSDYAMGWYRQAPGKERELVAAISGTGGGTYYADSVKGRFTISRDNAKNTVYLQMNSLKPEDTAVYYCAADYVFAWWGDYYWGQGTQVTVSS | high polyreactivity
QFQLVESGGGLVQAGGSLRISCDASGRTFWYYTMGWYRKAPGKERELVASITYRGGSTYYADSVKGRFTISRDNAKNTVYLQMNSLKPEDTAVYYCNKPYFTASGDRFGYWGQGTQVTVSS | low polyreactivity
QVQLVESGGGLVQAGGSLRLSCAASGIIFRWYGMGWYRQAPGKERELVATITSGGRTNYADSVKGRFTISRDNAKNTVYLQMNSLKPEDTAVYYCAAEKWTVRRFNPYTYYRYDYWGQGTQVTVSS | low polyreactivity
QVQLVESGGGLVQEGGSLRLTCAASGSTFIGNAMGGYRQAPGKERELVAAITSSGGSTYYADSVKGRFTISRDNAKNTVYLQMNSLKPEDTALYYCAAKTWARGHYGYQARSNYWGQGTQVTVSS | high polyreactivity
QVQLVESGGGLVQAGGSLRLSCAASGSIFWFNAMGWYRQAPGKEREFVASISRSGGTTYYADSVKGRFTISRDNAKNTVYLQMNSLKPEDTAVYYCNARAYGNGLGTGYFGKHRYDYWGQGTQVTVSS | low polyreactivity
QVQLVESGGGLVQAGGSLRLSCAASGFTFWRYAMGWYRQAPGKERELVAVITRRGGSTYYADSVKGRFTISRDNAKNTVYLQMNSLKPEDTAVYYCAAGPVSQQHSPGPHDYWGQGTQVTVSS | high polyreactivity
QVQLVESGGGLVQAGGSLRLTCAASGITFGGYAMGWYRQAPGKERELVATITSGGSTYYADSVKGRFTISRDNAKNTVYLQMNSLKPEDTAVYYCNAVYNYWFWGGYWHRPNARGDYWGQGTQVTVSS | high polyreactivity
QVQLVESGGGSVQAGGSLRLSCAASGYIFGVYAMGWYRQAPGKERELVAAISSGGSTNYADSVKGRFTISRDNAKNTVYLQMNSLKPEDTAVYYCNADYIFYYEYDYWGQGTQVTVSS | low polyreactivity
QVQLVESGGGLVQEGGSLRLSCAASGSTFRYYAMGWYRQAPGKERELVASISSSGGNTYGDAVKGRFTISRDNAKNTVYLQMNSLKPEDTAVYYCNADWALLYSPPYTYRYGYWGQGTQVTVSS | low polyreactivity
QVQLQDSGGVMVLACGSLRLSCAESGYISWSFTMGWYRKAPGKEREFVAGITYGGITYYADSVKGRFTISRDNAKNSVYLQMNRLKPEDTAVYYCAAPQSYPYVYVYWGHGTQVTVSS | high polyreactivity
QVQLVESGGGLVQARGSLRLSCAASGSTFYAYVMGWYRQATGKERELVAAISKGGGSTYYADSVKGRFTISRDNAKNTVYLQMNSLKPEDTAVYYSAAYASYSNYRKYNYWGQGTQVTVSS | high polyreactivity
QVLLVESGGGLVQAGGSLRLSCASSGNTFYVNVMGWYRQAPGKEREFVAAISTRGVSTSYADSVKGRYTISRDNAKNTVYLDMNTLKPEDTAVYYCAASFRRPQPKGTTYGYWGQGTQVTVSS | high polyreactivity
QVQLVESGGGLVKEGGSLRLSCAASGNTIRVNAMGWYRQAPGKERELVAAISFSGGRTYYADSVKGRFTISRDNAKNTVYFQMNSLKPEDTGVYYCAALRRYPRPFIYGYWGQVTQVTVSS | low polyreactivity
QVQLVESRGGLVQAGGSLRLSCAASGFTFSWYAMGWYRQAPGKERELVAAITRSGGSTNYADSVKGRFTMSRDNAKNTVYLQMNSLKPEDTAVYYCAARYSPGFGYWGKGTQVTVSS | high polyreactivity

Sequence | polyreactivity (PSR sort gate)
QVQLVESGGGLVQAGGSLRLSCAASGLIFYSNAMGWYRQAPGKERELVAAISFNSGSTYYADSVKGRFTISRDNAKNTVYLQMNSLKPEDTAVYYCAKKRRFVVLSVQGDYWGQGTQVTVSS | low polyreactivity
QVQLVESGGGLVQAGGSLRLSCAASGSTFSSYAMGWYRQAPGKERELVARITSGGSTYYADSVKGRFTISRDNAKNTVYSQMNSLKPEDTAVYYCAARGYYYRSRVSQFKYDYWGQGTQVTVSS | high polyreactivity
QVQLVESGGGLVQAGGSLRLSCAASGGIFAANAMGWYRPAPGKERELVAAISRSGGRTYYADSVKGRFTISRDNAKNTVYLQMNSLKPEDTAVYYCAATYQASNAWYDYWGQGTQVTVSS | high polyreactivity
QVQLVESGGGLVQAGGSLRLSCAASGGTITPYAMGWYRQAPGKERELVAAISRSGARTYYADSVKGRFTISRDNAKNTVYLQMNSLKPEDTAVYYCAKTFSGYRFDYWGQGTQVTVSS | high polyreactivity
QVQLVESGGGLVQAGGSLRLCCAAYGSIFARNSMGWYRHAPGKERELVAVITTGGRTYYADSVKGRFTISRDNAKNTVYLQMNSMKPEDTAVYYCATRVIYGNSGGYWGKGTQVTVSS | high polyreactivity
QVQLVESGGGLVQAGGSLRLSCAASGSIFSYKAMGWYRQAPGKERELVAAISWSGGRTYYADSVKGRFTISRDNAKNTVYLQMNSLKPEDTAVYYCNAQYRLYSEFNYWGQGTQVTVSS | high polyreactivity
QVQLVESGGGLVQAGGSLRLSCAASGFTFPVYTMGWYRQAPGKERELVAAISTSGAGTYYADSVKGRFTISRDNAKNTVYLQMNSLKPEDTAVYYCAAYKRGRPEMYYWGQGTQVTVSS | high polyreactivity
QVQLVESGGGLVQAGGSLRLSCPASGRIFTGYAMGWYRQSPGKERELVASISDSGASTYYADSVKGRFTISRDNAKNTVYLQMNSLKPEDTAVYYCAADWTLDTSYGYYADDFWGQGTQVTVSS | low polyreactivity
QVQLQESGGGLVQAGGSLRLSCAATGSIYHLHIMCWYRKAPGKERESVAAISYGTSTYYADSVKGRFTICRDNAKNTVYLQMNSPKPDDTAVYYCAALFLVYKHHHYWGEGTQVTVSS | low polyreactivity
QVQLVESGGGLVQAGGSLRLSCAASGFIFRYYAMGWYRQAPGKERELVAAISWSGSSTYYADSVKGRFTISRDNAKNTVYLQMNSLKPEDTAVYYCNAVTRNARDYWGQGTLVTVSS | high polyreactivity
QVQLVESGGGLVQAGGSLRLSCAASGRFFSNNAMGWYRPAPGKERELVAAIDSSGDSTNYADSVKGRFTISRDIAKNTVYLQMNSLKPEDTAVYYCNALQRGRRVWQYLYGYWGQGTQVNVSS | high polyreactivity
QVQLVESGGGLVQAGGSLRLSCDASGRIFDYYAMGWYRQAPGKEMELVAAISTSGGSTYYADSVKGRFTISRDNAKNTVYLQMTRLKPEDTAVYYWAKDITDTYPGLDYDYWGQGTQVTVSS | low polyreactivity
QVQLVDSGGGLVQAGGSLRLSCAASGLNFVINAMGWYRQAPGKERELDATISSGVSTNYADSVKGRFTISRDNAKNTVYLQMNSLKPEDTAVYDCNKGQTVSRGYRLYERYDYWGQGTQVTVSS | low polyreactivity
QVQLVESGGGLVQAGGSLRLSCAATGIIFDSYTMGWYRQAPGKERELVAAISVSGGSTYYADSVKVRFTISRDNAKNTVYLQMNSLKPEDTAVYYCAARGYAFNYMWPFNYWGQGTQVTVSS | low polyreactivity
QVQLVESGGGLVQAGGSLRLSCAASGRIFYPYTMGWYRQAPGKERELVAAISSGSRTNYADSVKGRFTISRDNAKNTVYLQMNSLKPEDTAVYYCAAAAYSYKRVYQTFTFGYWGQGTQVTVSS | high polyreactivity
QVQLVESGGGLVHAGGSLRLSCAASGSTFQLNAMGWYRQAPGKERELVAAISTRGGSTYYADSLKGRFTISRDNAKNTVYLQMNSLKPEDTAVYYCAARLYTRRDYWGQATQVTVSS | high polyreactivity
QVQLVQSGGGLVQAGGSLRLSCAASGRIFADNAMGWYRQAPGKERELVADITYSGGSTYYADSVKGRFTISRDNAKNTVYLQMNILKPEDTVVYYCAAGRSSLYFPGYYYWGQGTLVTVSS | low polyreactivity
QVQLVESGGGLVQAGGSLRLSCAAPGSIFPRYAMGWYRPAPGKERELVAAISRSGGSTYYADSVKGRFTISRDNAKNTVYLQMNSLKPEDTAVYYCATDKVSHRRYDYWGQGTQVTVSS | high polyreactivity
QVQLVESGGGLVQAGGSLRLSCAASGRIFERYAMGRYRQAPGKERELVAAISVSGSGTYYADSVKGRFTISRDNAKNTVYLQINSLKPEDTAVYYCAADASLLGLYYYLFYLEVNYWGQGTQVTVSS | low polyreactivity
QVQLVESGGGLVQAGCSLRLSCAASGSSFYTYTMGWYRQAPGKERELVAAITWSGGSTYYADSVKGRFTISRDNAKNTVYLQMNSLKPEDTAVYFCNADQDYQAARPSGMDYWGQGTQVTVSS | low polyreactivity
QVQLVESGGGLVQAGGSLRLSCAASGFTFVRYAMGWYRQAPGKERELVAAITRSGGSTYYADSVKGRFTISRDNAKNTVYLQMNSLKPEDTAVYYCNARRSRSRYDYWGQGTQVTVSS | high polyreactivity
